We go through four molecules from US20130123192A1 (RESEARCH FOUNDATION OF STATE UNIVERSITY OF NEW YORK, published 2013).

Assay [1] deals with T1, Membrane type 1 matrix metalloproteinase (MT1-MMP) (Homo sapiens, UniProt P50281 112-582). Put plainly: cell-based or functional assay.
Assay [2] has as its target T1, Membrane type 1 matrix …. Put plainly: flow cytometry on cells expressing MT1-MMP.

Where no end group is shown, it is not given here.

Regarding GYPKSALR [IVS4-8 peptide (GYPKSALR)], the “IC50, 3D invasion assay (human MDA-MB-231 breast cancer cell invasion)” value (“IC50, 3D invasion assay” for short) in assay [1] was determined as 10000 nM.

For GYPMP (also: biotinylated (site not given here), also called biotinylated IS4-5 peptides) [biotinylated IS4-5 peptide], in assay [2], the binding result is listed as “binds”.

Consider VMDGYPMP [IS4-8 peptide (VMDGYPMP)], for which, in assay [1], the “IC50, 3D invasion assay” value amounted to 1500 nM.

Take GYPMP [IS4-5 peptide (GYPMP)]: the “IC50, 3D invasion assay” value in assay [1] turned out to be 1500 nM.
